According to paper PMC3407074:

Assays:
[1] = molecular target: recP12-Cd4d3/4-bio (Plasmodium falciparum); assay: SPR; BIAcore T100, 37°C; recP12-Cd4d3/4-bio captured on a streptavidin chip, biotinylated Cd4d3/4 as reference; serial dilutions of recP41-Cd4d3/4-6H at 10 µL/min; equilibrium analysis, Langmuir isotherm
[2] = molecular target: recP12-Cd4d3/4-bio (Plasmodium falciparum); assay: SPR; BIAcore T100, 37°C; recP12 captured on a streptavidin chip; two-fold dilutions from 3.6 µM recP41-Cd4d3/4-6H at 100 µL/min; kinetic analysis, 1:1 binding model

recP41-Cd4d3/4-6H (domain or fragment)
Kd [1]: 310 nM
koff [2]: 0.0212 s⁻¹
kon [2]: 134000 M⁻¹ s⁻¹
